# In PMC5069480, “MPP2 is a postsynaptic MAGUK scaffold protein that links SynCAM1 cell adhesion molecules to core components of the postsynaptic density” (Scientific Reports, 2016):
# Target: T1, bacterially produced MPP2 PDZ-SH3-GK (MPP2 PSG module) (mouse)
# T1 construct: source: E. coli Rosetta, purified (Ni-NTA, Superdex 75)
# T1 sequence (Q9WV34 whole entry, looked up): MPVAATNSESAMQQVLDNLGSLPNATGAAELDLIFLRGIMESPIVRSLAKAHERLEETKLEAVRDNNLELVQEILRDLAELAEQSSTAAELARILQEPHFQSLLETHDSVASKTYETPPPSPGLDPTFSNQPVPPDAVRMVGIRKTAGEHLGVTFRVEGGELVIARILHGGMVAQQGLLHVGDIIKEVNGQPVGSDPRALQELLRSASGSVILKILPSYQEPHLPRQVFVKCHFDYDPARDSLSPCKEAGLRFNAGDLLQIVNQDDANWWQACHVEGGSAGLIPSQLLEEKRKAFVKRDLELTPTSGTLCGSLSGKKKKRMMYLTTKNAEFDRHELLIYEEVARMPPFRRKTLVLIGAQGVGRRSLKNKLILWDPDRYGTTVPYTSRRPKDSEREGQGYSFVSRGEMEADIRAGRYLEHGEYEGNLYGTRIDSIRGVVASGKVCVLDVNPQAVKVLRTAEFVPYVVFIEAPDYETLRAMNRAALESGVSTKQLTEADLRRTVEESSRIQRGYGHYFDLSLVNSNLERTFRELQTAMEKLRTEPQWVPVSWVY
# Assay: ITC; ITC200 at 25 °C; 200 mM NaCl, 20 mM Tris-HCl pH 7.5, 1 mM DTT; 350 μM mCherry-tagged peptide titrated into 55 μM MPP2 PSG module in the cell; single-site binding model
# Conditions: both partners purified
binder,measurement,value
GGGGSGGGGSGGGGSNSEEKKEYFI (domain or fragment) [bacterially produced mCherry-tagged SynCAM1 peptide (C-terminus)],Kd,3.1 ± 0.239 µM
